According to the RNAGym collection of RNA variant scans (doi:10.7554/elife.90254):

B1: LINE1-full (parent)
chain: UACGUAGGUGGUUUUCCCCUGAUAGUGCUAAGGGGGCCUGGAAGUUUGGACUGGGCAGAGCUCAACACAGCGUGGCAAAGUGGCUGUGGCUAGACUGCCUCUCUGGAUUCCUCGUCACUCAGCAGGGCAUCUCUGAGAGAAAUGCC

Variants of: B1
Assay: self-cleavage, relative activity (ratio to wild type); higher = more cleavage; in vitro, sequencing; the parent is a self-cleaving ribozyme

| Variant | self-cleavage |
| --- | --- |
| U47C U115A | 1.75 |
| A50G A107G | 1.1 |
| A50U A138C | 1.21 |
| A50U A138U | 1.16 |
| G48A A64U | 0.39 |
| U47C C71A | 0.68 |
| U47C A77C | 0.34 |
| G48A A129U | 1.13 |
| G49U U143C | 0.84 |
| A50C A94G | 0 |
| A50G A78C | 0 |
| G49U | 0.94 |
| G49C | 1.15 |
| G49A | 1 |
| A50G C118U | 0.71 |
| A50G A117U | 0.91 |
| A50G A117G | 1.97 |
| G49A U115C | 1.33 |
| A50U U87A | 0.1 |
| A50U U87C | 0.23 |
| A50G A142C | 1.07 |
| A50G A142G | 0.9 |
| G49A A124G | 0.55 |
| U47G U100A | 0.42 |

| Variant | self-cleavage |
| --- | --- |
| G49A U130C | 1.55 |
| A50G A67G | 0.37 |
| U47C A124G | 1.59 |
| U47C A124U | 1.68 |
| U47C A124C | 1.31 |
| A50U A94G | 0.29 |
| U47C A117U | 1.33 |
| U47C A117G | 1.81 |
| U47G U91A | 1.93 |
| G49A A142G | 0.98 |
| G49U A142G | 0.85 |
| U47C U112C | 2 |
| U47C U112A | 1.02 |
| U47C U91A | 0.97 |
| U47C G75A | 1.95 |
| U47A G137U | 1.36 |
| U47C C90G | 0.04 |
| G49A A117U | 1.05 |
| G49A U119C | 0.62 |
| G49A A138G | 1.11 |
| G49A U112C | 1.45 |
| G48A U100C | 1.9 |
| A50U G74U | 1.04 |
| A50G U109A | 0.84 |

| Variant | self-cleavage |
| --- | --- |
| A50G U109C | 0.96 |
| U47A U102C | 1.19 |
| U47A U102A | 1.35 |
| A50G U52A | 0.91 |
| U47G U143C | 1.31 |
| U47C A78G | 1.64 |
| A50G U134G | 0.19 |
| A50G U134C | 0.86 |
| G48C A142G | 1.38 |
| A50G U132G | 1.15 |
| A50G U132A | 1.34 |
| A50U U62A | 0.01 |
| A50U U52C | 0.89 |
| A50U U52A | 1.17 |
| A50C A142G | 1.78 |
| U47C U100C | 2.49 |
| G49U G127A | 0.27 |
| G48A U91C | 0.09 |
| A50G U100C | 0.98 |
| A50G A64U | 0.39 |
| A50G A64G | 0.42 |
| A50G A64C | 0.37 |
| U47G A138G | 0.98 |
| G49C A140G | 1.51 |

| Variant | self-cleavage |
| --- | --- |
| U47C U143A | 1.63 |
| U47A U108C | 1.22 |
| A50G A57G | 0.32 |
| A50G A57U | 0.14 |
| A50U A65G | 0.06 |
| A50G A121C | 1.23 |
| U47A U115C | 1.39 |
| U47A U115A | 1.05 |
| U47C G144A | 1.44 |
| U47C G97C | 1.3 |
| U47C G97A | 0.59 |
| G48A U87C | 0.12 |
| U47A U119C | 1.53 |
| U47A U96C | 0.13 |
| U47C G53U | 1.3 |
| G48U G125A | 1.17 |
| G49A U85C | 0.1 |
| G48A U52A | 1.22 |
| U47A U134C | 1.39 |
| A50G U104A | 0.85 |
| A50C A67G | 0.62 |
| A50G G114A | 0.98 |
| U47G U104C | 1.48 |
| U47G A65G | 0.1 |

| Variant | self-cleavage |
| --- | --- |
| A50C | 1.34 |
| A50U | 1 |
| A50G | 0.9 |
| G49U A94U | 0.32 |
| C51A | 1.31 |
| U47C C128A | 0.73 |
| A50C A64U | 0.4 |
| A50C A64G | 0.63 |
| A50U C118U | 1.02 |
| G49U U134C | 1.63 |
| G49U U134A | 1.19 |
| G49U U109C | 0.95 |
| A50C U87C | 0.13 |
| A50G A69C | 0 |
| U47A G86A | 0.07 |
| U47G U102A | 1.34 |
| G49C U115C | 2.02 |
| A50U A141G | 0.68 |
| U47C G82A | 2.09 |
| U47A U132A | 1.34 |
| A50U A64G | 0.16 |
| G48A A79G | 1.43 |
| U47G U130A | 1.23 |
| G48A A59G | 0.03 |

| Variant | self-cleavage |
| --- | --- |
| A50G U85C | 0.1 |
| A50G U85A | 0.05 |
| U47C A65U | 0.1 |
| A50G A138U | 0.95 |
| A50U U73A | 0.89 |
| U47C U52C | 1.18 |
| A50G G97A | 0.06 |
| U47C C131U | 1.91 |
| U47C A50U | 1.5 |
| A50C U109C | 0.97 |
| A50G U112A | 1.02 |
| U47A G106C | 2.21 |
| A50C U73G | 0.79 |
| A50G G55A | 0.15 |
| G49A A65U | 0.04 |
| A50C A117U | 0.92 |
| G49A G72A | 1.45 |
| U47G A142G | 1.33 |
| A50G G60A | 0.04 |
| G49U C95G | 0.04 |
| U47G A92G | 0.17 |
| G48A A92G | 0.09 |
| A50G U62C | 0.1 |
| A50G U62A | 0.09 |

| Variant | self-cleavage |
| --- | --- |
| A50G U62G | 0.1 |
| A50G C99U | 0.43 |
| A50G G88A | 0.06 |
| U47A G72A | 0.95 |
| A50G G125A | 0.39 |
| U47G A67G | 0.06 |
| U47G U62A | 0.03 |
| G49A U100C | 1.96 |
| G48U U134C | 1.14 |
| U47A U91C | 0.63 |
| G48A U62A | 0.02 |
| G48A U112A | 0.83 |
| G48A U112C | 1.45 |
| U47C G72U | 2.51 |
| G48A G72A | 0.96 |
| U47G A59U | 1 |
| A50G C95A | 0.05 |
| A50G C95U | 0.03 |
| U47C G74C | 1.61 |
| U47A U143C | 1.39 |
| A50G U96C | 0.1 |
| A50G U96A | 0.04 |
| U47G A129G | 1.31 |
